Source: patent publication US20110306068A1 (HYGLOS INVEST, published 2011)

Target: T1, bacteriophage tail protein T4p12 (bacteriophage T4, UniProt P10930 1-527)
T1 sequence (looked up): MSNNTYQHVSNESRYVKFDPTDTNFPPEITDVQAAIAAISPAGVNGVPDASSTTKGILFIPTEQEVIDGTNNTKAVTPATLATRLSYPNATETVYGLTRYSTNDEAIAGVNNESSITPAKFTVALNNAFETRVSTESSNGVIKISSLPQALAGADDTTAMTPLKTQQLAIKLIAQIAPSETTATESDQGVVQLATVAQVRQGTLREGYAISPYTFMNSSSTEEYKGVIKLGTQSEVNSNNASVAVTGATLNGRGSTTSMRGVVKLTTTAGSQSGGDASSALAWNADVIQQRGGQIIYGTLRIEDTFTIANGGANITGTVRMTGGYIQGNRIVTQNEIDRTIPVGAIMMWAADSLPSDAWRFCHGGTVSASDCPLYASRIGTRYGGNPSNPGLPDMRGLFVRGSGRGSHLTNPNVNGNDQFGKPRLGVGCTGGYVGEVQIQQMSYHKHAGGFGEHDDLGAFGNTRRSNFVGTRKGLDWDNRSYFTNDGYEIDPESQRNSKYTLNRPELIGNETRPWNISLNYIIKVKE
Assay: column chromatography; Miro2p12 covalently immobilised on sepharose, control columns without LPS; T4p12 in fractions read by absorption at 280 nm
Experimental: The amount of the bacteriophage tail protein p12 was plotted against the fractions of the chromatography run. […] The arrow marks the application of p12 onto the column. The fractions F2-F5 were collected after the application. The amount of p12 (stated in mg) was detected by absorption measurement at 280 nm. The fraction volume was 1 ml for fractions F1-F4 and 2 ml for fraction F5. The dissolution of bound T4p12 protein in fraction F5 was affected by addition of 2 mM EDTA to the running buffer (20 mM Hepes, 150 mM NaCl, 0.1 mM CaCl₂, pH 7.5). The bacteriophage tail protein T4p12 was retained at the columns prior loaded with endotoxin, while it elutes without delay through the columns containing no endotoxin.
Bacteriophage tail protein Miro2p12 was immobilized to NHS-Sepharose (Amersham Pharmacia) (3.4 mg protein per 1 ml sepharose) and out of this 4 column were cast with a volume of 0.5 ml each. The columns were washed with each 3 ml sodium phosphate buffer (20 mM sodium phosphate, pH 12.0) and with each 3 ml regeneration buffer (20 mM Hepes, 150 mM NaCl, 2 mM EDTA, pH 7.5). […] The flow-through was collected three times in fractions of 1 ml and once of 2 ml and the concentrations of the bacteriophage tail protein T4p12 was determined via absorption measurement at 280 nm in these fractions (FIG. 5). […]

B1: bacteriophage tail protein Miro2p12 (other)
chain: MAQNNYNHYSDLAKYTIFDPTNTQWPVAIKDVQSALELIGSWARTDTGLPVASPTVAGVIRTATQAEVDAGTIGNAAVTPATLKSTVTRPEATTAVLGLTRYATNTEAAALTAGNRTITAAALGHVFKTVKAQENVDGTVRLTTAAQAQAGTDETTAVTPKRVVEMIGKFSVSPPSYTSATESNLGLVRVATQAQVAAGAVHDGYAVTPKTFMASKASDSVFGIVKFAKDSDVASATSNNLAVTPKSLQALKSTKDKYGLTRLSGSPTTDASLAAAATDAVFKTRRINGKTLDNDITITNNDINCYTRQESDGRYMPAGTRVGNVTWVEGQSWISRGATFTCNAPWEASSRLALNVNVKFERNNDGYDNRIFRFVVIVNGSQWGGELTLNIENTKGGRNGHSWRFEAYASSNFFFNNIPPNATVQIRPTEDSRIIFYDCMLTFCTNRP
notes: The only purification described is of the N-Strep form
binding result: no binding (tested: 0.5 ml of 0.844 mg/ml T4p12 applied)
